Source: patent US20250339531A1, “DUX4 POLYPEPTIDES AND NUCLEIC ACIDS FOR TREATING INFLAMMATORY AND AUTOIMMUNE CONDITIONS” (Fred Hutchinson Cancer Center, priority 2021, published 2025)

Legend:
Experiment in all cases: anti-FLAG co-IP LC-MS, exp 4, +Dox +IFNG
[1] = molecular target: Drebrin (Homo sapiens) (UniProt Q16643)
[2] = molecular target: 4F2 cell-surface antigen heavy chain (Homo sapiens) (UniProt P08195)
[3] = molecular target: Junctional sarcoplasmic reticulum protein 1 (Homo sapiens) (UniProt Q96MG2)
[4] = molecular target: Heat shock protein HSP 90-alpha (Homo sapiens) (UniProt P07900)
[5] = molecular target: Serine/threonine-protein kinase 38 (Homo sapiens) (UniProt Q15208)
Chain of Serine/threonine-protein kinase 38 (Homo sapiens) (Q15208 2-465 limits assumed): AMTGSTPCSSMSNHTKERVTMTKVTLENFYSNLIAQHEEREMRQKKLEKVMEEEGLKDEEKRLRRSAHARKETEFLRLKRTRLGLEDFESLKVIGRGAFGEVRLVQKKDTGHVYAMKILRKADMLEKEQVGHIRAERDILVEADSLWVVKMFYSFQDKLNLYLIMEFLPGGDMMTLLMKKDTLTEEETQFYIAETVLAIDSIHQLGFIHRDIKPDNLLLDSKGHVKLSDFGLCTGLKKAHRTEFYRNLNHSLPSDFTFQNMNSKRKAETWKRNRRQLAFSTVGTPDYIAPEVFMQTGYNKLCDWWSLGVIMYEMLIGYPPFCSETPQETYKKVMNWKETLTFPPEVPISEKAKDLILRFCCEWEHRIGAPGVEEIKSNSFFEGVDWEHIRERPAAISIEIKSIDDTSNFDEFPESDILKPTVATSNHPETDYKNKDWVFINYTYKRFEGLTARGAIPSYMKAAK

[6] = molecular target: 60 kDa heat shock protein, mitochondrial (Homo sapiens) (UniProt P10809)
[7] = molecular target: cAMP-dependent protein kinase type I-alpha regulatory subunit (Homo sapiens) (UniProt P10644)
Chain of cAMP-dependent protein kinase type I-alpha regulatory subunit (Homo sapiens) (P10644 whole entry): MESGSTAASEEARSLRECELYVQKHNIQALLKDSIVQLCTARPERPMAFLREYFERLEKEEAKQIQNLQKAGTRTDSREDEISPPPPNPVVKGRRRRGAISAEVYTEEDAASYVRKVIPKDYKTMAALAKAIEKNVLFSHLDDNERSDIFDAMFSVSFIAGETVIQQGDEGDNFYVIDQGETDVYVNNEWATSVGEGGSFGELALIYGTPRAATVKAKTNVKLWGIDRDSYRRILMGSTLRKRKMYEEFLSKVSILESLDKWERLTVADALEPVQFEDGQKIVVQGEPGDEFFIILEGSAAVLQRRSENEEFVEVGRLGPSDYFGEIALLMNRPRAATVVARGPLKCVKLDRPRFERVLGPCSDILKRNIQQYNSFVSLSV

[8] = molecular target: Importin subunit beta-1 (Homo sapiens) (UniProt Q14974)
[9] = molecular target: Protein disulfide-isomerase (Homo sapiens) (UniProt P07237)
[10] = molecular target: 40S ribosomal protein S3 (Homo sapiens) (UniProt P23396)
[11] = molecular target: Heat shock 70 kDa protein 1B (Homo sapiens) (UniProt P0DMV9)
[12] = molecular target: Heterogeneous nuclear ribonucleoprotein K (Homo sapiens) (UniProt P61978)
[13] = molecular target: AP-2 complex subunit mu (Homo sapiens) (UniProt E9PFW3)
[14] = molecular target: 60S ribosomal protein L5 (Homo sapiens) (UniProt P46777)
[15] = molecular target: 40S ribosomal protein S8 (Homo sapiens) (UniProt P62241)
[16] = molecular target: Clathrin heavy chain (Homo sapiens) (UniProt Q00610)
[17] = molecular target: Probable ubiquitin carboxyl-terminal hydrolase FAF-X (Homo sapiens) (UniProt Q93008)
[18] = molecular target: Heat shock cognate 71 kDa protein (Homo sapiens) (UniProt P11142)
[19] = molecular target: Prolyl 4-hydroxylase subunit alpha-1 (Homo sapiens) (UniProt P13674)
[20] = molecular target: Ras GTPase-activating protein-binding protein 1 (Homo sapiens) (UniProt Q13283)
[21] = molecular target: Elongation factor 1-delta (Homo sapiens)
[22] = molecular target: Prostate tumor-overexpressed gene 1 protein (Homo sapiens) (UniProt Q86YD1)
[23] = molecular target: Guanine nucleotide-binding protein G(i) subunit alpha-2 (Homo sapiens) (UniProt P04899)
[24] = molecular target: Dynactin subunit 1 (Homo sapiens) (UniProt Q14203)
Chain of Dynactin subunit 1 (Homo sapiens) (Q14203 whole entry): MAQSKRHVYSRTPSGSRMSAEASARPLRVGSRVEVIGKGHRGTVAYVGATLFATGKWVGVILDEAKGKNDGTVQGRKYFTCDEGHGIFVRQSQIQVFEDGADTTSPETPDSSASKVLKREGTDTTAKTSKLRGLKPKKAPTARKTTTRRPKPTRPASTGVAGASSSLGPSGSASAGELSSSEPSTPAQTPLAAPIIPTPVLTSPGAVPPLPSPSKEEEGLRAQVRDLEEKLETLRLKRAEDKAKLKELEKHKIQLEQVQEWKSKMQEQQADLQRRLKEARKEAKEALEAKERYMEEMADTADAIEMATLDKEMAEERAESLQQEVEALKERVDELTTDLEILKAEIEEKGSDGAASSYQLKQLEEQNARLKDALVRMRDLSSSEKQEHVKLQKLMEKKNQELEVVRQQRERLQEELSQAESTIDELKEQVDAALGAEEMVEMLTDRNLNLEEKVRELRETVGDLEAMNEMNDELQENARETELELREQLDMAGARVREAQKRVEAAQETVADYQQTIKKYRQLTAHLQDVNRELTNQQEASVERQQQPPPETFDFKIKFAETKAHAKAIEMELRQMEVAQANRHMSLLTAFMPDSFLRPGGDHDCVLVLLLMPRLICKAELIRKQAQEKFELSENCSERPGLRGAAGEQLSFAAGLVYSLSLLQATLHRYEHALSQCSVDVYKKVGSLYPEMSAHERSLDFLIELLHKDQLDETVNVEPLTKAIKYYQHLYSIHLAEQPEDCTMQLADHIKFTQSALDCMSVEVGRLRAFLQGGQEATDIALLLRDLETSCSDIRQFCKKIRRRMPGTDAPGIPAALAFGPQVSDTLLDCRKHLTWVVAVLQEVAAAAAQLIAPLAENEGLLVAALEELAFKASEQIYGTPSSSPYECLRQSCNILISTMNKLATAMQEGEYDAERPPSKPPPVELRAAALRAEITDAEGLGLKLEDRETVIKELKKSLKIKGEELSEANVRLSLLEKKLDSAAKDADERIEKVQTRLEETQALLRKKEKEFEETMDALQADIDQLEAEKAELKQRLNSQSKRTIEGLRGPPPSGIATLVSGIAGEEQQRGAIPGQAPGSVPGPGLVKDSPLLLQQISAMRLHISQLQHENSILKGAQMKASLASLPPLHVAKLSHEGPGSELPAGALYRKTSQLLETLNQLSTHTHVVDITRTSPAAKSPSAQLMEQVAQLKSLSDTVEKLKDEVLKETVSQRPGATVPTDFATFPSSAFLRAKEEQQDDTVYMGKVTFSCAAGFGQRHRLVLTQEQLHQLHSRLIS

[25] = molecular target: Actin-related protein 3 (Homo sapiens) (UniProt P61158)
[26] = molecular target: Alpha-actinin-4 (Homo sapiens) (UniProt O43707)
[27] = molecular target: Tubulin beta-6 chain (Homo sapiens) (UniProt Q9BUF5)
Chain of Tubulin beta-6 chain (Homo sapiens) (Q9BUF5 whole entry): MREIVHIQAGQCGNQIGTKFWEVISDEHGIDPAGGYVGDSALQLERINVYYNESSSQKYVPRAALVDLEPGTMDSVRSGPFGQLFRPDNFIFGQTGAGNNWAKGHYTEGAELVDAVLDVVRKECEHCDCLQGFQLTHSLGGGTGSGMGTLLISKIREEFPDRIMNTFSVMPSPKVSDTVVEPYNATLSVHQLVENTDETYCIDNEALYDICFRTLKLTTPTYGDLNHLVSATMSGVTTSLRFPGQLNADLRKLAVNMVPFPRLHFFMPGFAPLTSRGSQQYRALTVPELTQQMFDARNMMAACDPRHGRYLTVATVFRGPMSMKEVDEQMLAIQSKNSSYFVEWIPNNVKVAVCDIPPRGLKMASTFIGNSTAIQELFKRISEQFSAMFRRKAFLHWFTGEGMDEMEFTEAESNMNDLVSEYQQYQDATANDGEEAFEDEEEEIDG

[28] = molecular target: Importin subunit alpha-5 (Homo sapiens) (UniProt P52294)
[29] = molecular target: Phosphate carrier protein, mitochondrial (Homo sapiens) (UniProt Q00325)
[30] = molecular target: 40S ribosomal protein S3a (Homo sapiens) (UniProt P61247)
[31] = molecular target: Myosin regulatory light chain 12A (Homo sapiens) (UniProt J3QRS3)
[32] = molecular target: Reticulon-4 (Homo sapiens) (UniProt Q9NQC3)
[33] = molecular target: Alpha-enolase (Homo sapiens) (UniProt P06733)
[34] = molecular target: Spectrin beta chain (Homo sapiens) (UniProt Q01082)
Chain of Spectrin beta chain (Homo sapiens) (Q01082 2-2364 limits assumed): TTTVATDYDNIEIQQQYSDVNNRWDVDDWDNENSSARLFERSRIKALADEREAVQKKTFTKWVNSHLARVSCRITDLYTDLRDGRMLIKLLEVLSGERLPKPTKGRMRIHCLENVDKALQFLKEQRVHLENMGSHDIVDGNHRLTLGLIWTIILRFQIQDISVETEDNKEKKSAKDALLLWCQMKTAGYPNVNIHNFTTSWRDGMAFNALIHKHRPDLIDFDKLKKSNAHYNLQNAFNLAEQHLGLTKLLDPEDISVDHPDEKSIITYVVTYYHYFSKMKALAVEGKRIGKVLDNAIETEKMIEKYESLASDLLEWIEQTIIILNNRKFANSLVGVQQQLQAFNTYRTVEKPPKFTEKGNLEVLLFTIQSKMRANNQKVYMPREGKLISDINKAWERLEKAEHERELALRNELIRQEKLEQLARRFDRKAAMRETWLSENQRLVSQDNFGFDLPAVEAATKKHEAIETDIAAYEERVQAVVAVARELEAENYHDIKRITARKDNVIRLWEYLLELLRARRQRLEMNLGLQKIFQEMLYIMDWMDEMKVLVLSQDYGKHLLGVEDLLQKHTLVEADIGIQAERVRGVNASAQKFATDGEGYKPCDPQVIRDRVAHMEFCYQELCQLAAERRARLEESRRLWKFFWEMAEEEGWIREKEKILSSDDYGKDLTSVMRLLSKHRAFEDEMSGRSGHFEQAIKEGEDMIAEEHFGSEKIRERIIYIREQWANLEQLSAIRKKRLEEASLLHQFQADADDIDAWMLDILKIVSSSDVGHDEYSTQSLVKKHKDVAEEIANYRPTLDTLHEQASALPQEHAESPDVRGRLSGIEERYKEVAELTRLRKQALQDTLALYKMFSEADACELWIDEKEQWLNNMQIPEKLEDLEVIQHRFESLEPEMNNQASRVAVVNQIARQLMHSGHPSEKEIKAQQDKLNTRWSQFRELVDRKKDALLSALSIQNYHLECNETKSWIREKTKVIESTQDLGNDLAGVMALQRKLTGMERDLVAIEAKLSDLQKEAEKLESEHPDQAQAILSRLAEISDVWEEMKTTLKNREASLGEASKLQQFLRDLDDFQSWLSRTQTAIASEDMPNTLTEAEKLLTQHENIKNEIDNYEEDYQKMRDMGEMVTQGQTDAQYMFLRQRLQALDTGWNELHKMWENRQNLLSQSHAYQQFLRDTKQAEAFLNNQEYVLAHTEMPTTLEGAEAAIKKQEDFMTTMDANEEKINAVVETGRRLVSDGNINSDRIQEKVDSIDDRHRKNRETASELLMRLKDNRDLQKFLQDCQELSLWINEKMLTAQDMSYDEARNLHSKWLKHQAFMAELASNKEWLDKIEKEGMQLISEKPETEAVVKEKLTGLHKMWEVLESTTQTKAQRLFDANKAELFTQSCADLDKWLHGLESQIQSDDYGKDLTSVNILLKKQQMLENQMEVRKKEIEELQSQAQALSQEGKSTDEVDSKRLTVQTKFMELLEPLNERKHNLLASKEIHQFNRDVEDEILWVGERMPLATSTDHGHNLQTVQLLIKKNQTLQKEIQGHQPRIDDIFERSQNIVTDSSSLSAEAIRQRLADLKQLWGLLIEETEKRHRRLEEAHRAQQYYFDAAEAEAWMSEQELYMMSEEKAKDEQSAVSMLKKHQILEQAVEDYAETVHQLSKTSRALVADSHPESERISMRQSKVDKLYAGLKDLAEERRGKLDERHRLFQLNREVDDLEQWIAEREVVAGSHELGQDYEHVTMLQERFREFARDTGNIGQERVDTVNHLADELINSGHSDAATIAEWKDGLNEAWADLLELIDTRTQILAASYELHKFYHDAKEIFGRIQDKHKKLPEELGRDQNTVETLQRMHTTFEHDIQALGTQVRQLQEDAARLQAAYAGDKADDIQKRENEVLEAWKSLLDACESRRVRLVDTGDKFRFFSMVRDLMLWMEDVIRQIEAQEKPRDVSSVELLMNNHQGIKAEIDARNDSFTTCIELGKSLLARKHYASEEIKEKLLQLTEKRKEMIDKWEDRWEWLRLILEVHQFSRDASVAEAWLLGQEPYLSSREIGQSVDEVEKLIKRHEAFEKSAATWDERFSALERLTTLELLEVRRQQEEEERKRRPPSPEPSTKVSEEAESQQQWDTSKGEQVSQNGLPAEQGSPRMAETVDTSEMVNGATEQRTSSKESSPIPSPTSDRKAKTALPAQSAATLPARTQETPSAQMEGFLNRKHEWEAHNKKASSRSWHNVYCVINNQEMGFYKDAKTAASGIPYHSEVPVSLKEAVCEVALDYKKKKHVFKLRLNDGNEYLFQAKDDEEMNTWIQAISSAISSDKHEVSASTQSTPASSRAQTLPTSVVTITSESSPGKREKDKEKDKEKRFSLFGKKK

[35] = molecular target: Elongation factor 1-alpha 1 (Homo sapiens) (UniProt P68104)
[36] = molecular target: 60S acidic ribosomal protein P0 (Homo sapiens) (UniProt P05388)
[37] = molecular target: Src substrate cortactin (Homo sapiens) (UniProt Q14247)

Substance: i3XFLAG-NLS-CTDaa154-424
- PSMs [1]: 33 PSMs
- PSMs [2]: 2 PSMs
- PSMs [3]: 3 PSMs
- PSMs [4]: 10 PSMs
- PSMs [5]: 6 PSMs
- PSMs [6]: 5 PSMs
- PSMs [7]: 3 PSMs
- PSMs [8]: 3 PSMs
- PSMs [9]: 14 PSMs
- PSMs [10]: 11 PSMs
- PSMs [11]: 29 PSMs
- PSMs [12]: 6 PSMs
- PSMs [13]: 3 PSMs
- PSMs [14]: 19 PSMs
- PSMs [15]: 2 PSMs
- PSMs [16]: 28 PSMs
- PSMs [17]: 3 PSMs
- PSMs [18]: 105 PSMs
- PSMs [19]: 9 PSMs
- PSMs [20]: 2 PSMs
- PSMs [21]: 11 PSMs
- PSMs [22]: 2 PSMs
- PSMs [23]: 11 PSMs
- PSMs [24]: 2 PSMs
- PSMs [25]: 3 PSMs
- PSMs [26]: 46 PSMs
- PSMs [27]: 46 PSMs
- PSMs [28]: 2 PSMs
- PSMs [29]: 2 PSMs
- PSMs [30]: 2 PSMs
- PSMs [31]: 62 PSMs
- PSMs [32]: 6 PSMs
- PSMs [33]: 2 PSMs
- PSMs [34]: 3 PSMs
- PSMs [35]: 9 PSMs
- PSMs [36]: 36 PSMs
- PSMs [37]: 5 PSMs
